The values below come from US20240301429A1 (RSEM LIMITED PARTNERSHIP, published 2024).

Numbering of substitutions follows the chain as printed. Numbers in names are those of the source.

The target of this assay is T1, SEMA3A-FC (R&D systems) (Homo sapiens (Human), UniProt Q14563 22-771).
T1 construct: Bought reagent; not shown: Fc portion of the bought fusion, detected with anti-human IgG
T1 sequence: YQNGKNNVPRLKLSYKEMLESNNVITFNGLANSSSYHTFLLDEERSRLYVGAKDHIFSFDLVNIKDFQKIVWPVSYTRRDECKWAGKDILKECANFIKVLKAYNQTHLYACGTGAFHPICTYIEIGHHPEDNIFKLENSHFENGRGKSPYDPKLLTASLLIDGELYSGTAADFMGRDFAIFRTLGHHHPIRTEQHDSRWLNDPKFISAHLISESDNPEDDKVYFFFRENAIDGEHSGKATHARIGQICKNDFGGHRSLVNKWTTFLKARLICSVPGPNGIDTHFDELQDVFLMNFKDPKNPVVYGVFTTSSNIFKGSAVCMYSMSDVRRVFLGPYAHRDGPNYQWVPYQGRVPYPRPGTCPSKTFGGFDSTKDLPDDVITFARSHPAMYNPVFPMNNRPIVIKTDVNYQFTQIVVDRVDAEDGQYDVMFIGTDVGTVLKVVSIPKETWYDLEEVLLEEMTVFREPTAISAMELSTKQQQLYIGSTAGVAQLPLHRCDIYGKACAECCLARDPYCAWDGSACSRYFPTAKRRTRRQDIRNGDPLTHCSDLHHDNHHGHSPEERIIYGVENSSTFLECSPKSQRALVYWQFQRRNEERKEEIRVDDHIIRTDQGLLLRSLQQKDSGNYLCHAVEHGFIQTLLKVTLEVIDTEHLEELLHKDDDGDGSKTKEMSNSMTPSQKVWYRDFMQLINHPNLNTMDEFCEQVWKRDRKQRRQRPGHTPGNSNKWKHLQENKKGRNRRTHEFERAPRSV
As to the kind of experiment: saturation binding, trap coated on plate, SEMA3A-FC titrated, anti-human IgG-HRP chemiluminescence. How it is done:
Sema 3A and AP-VEGF₁₆₅ binding assays. Saturation curves for the determinations of KD of binding to SEMA 3A or VEGF165 were obtained as follow. Wells of high protein binding 96 well plates (Maxisorp, Nunc) were coated with purified traps diluted in PBS and blocked afterward with binding buffer (PBS containing 2% casein and 0.05% Tween 20). The SEMA3A-FC (R&D systems) or AP-VEGF165 ligands were diluted in binding buffer over an extensive range of concentrations and added to wells. Following an overnight incubation, wells were washed with PBS containing 0.05% tween. Bound SEMA3a-FC was detected using an HRP-linked anti-Human IgG (Biorad) and ECL substrate (Pierce). Alternatively, bound AP-VEGF165 was detected using CPD star substrate (Roche). The Chemiluminescent signal was acquired on a TECAN reader. Dissociation constant (KD) were determined by non-linear curve fitting using the Graph Pad prism software.

B1: NRP1 trap AE (receptor)
chain: FRNDKCGDTIKIESPGYLTSPGYPHSYHPSEKCEWLIQAPDPYQRIMINFNPHFDLEDRDCKYDYVEVFDGENENGHFRGKFCGKIAPPPVVSSGPFLFIKFVSDYETHGAGFSIRYELFKRGPECSQNYTTPSGVIKSPGFPEKYPNSLECTYIVFAPKMSEIILEFESFDLEPDSNPPGGMFCRYDRLEIWDGFPDVGPHIGRYCGQKTPGRIRSSSGILSMVFYTDSAIAKEGFSANYSVLQSSVSEDFKCMEALGMESGEIHSDQITASSQYSTNWSAERSRLNYPENGWTPGEKSYREWIQVDLGLLRFVTAVGTQGAISKETKKKYYVKTYKIDVSSNGEDWITIKEGNKPVLFQGNTNPTDVVVAVFPKPLITRFVRIKPATWETGISMRFEVYGCKITDYPCSGMLGMVSGLISDSQITSSNQGDRNWMPENIRLVTSRSGWALPPAPHSYINEWLQIDLGEEKIVRGIIIQGGKHRENKVFMRKFKIGYSNNGSDWKMIMDDSKRKAKSFEGNNNYDTPELRTFPALSTRFIRIYPERATHGGLGLRMELLGCRSGSKENLYFQG
notes: Signal peptide not trimmed
As to B1, the binding result was “no binding”.

B2: NRP1 trap Q (receptor)
chain: B1 chain with Y276A, K299D
notes: a1a2-b1b2 with Y297A (held in the entry); Signal peptide not trimmed
Take B2: the binding result was “no binding”.

B3: NRP1 trap M (receptor)
chain: FRNDKCGDTIKIESPGYLTSPGYPHSYHPSEKCEWLIQAPDPYQRIMINFNPHFDLEDRDCKYDYVEVFDGENENGHFRGKFCGKIAPPPVVSSGPFLFIKFVSDYETHGAGFSIRYELFKRGPECSQNYTTPSGVIKSPGFPEKYPNSLECTYIVFAPKMSEIILEFESFDLEPDSNPPGGMFCRYDRLEIWDGFPDVGPHIGRYCGQKTPGRIRSSSGILSMVFYTDSAIAKEGFSANYSVLQSSVSEDFKCMEALGMESGEIHSDQITASSQYSTNWSAERSRLNYPENGWTPGEDSYREWIQVDLGLLRFVTAVGTQGAISKETKKKYYVKTYKIDVSSNGEDWITIKEGNKPVLFQGNTNPTDVVVAVFPKPLITRFVRIKPATWETGISMRFEVYGCRSGSKENLYFQG
notes: a1a2-b1; Signal peptide not trimmed
The Kd is the free concentration of one partner at which half of the binding sites on the other are occupied at equilibrium, for simple one-to-one binding. Low values mean higher affinity, high ones lower affinity. B3 came in with a dissociation constant (Kd) of 0.95 nM.

B4: NRP1 trap P (receptor)
chain: B3 chain with Y276A
notes: a1a2-b1 with Y297A (held in the entry); Signal peptide not trimmed
On to B4, for which the binding result is recorded as “no binding”.

B5: NRP1 trap AD (receptor)
chain: B3 chain with D299K
notes: Signal peptide not trimmed
With B5, the binding result is given as “no binding”.

B6: NRP1 trap AF (receptor)
chain: FRNDKCGDTIKIESPGYLTSPGYPHSYHPSEKCEWLIQAPDPYQRIMINFNPHFDLEDRDCKYDYVEVFDGENENGHFRGKFCGKIAPPPVVSSGPFLFIKFVSDYETHGAGFSIRYELFKRGPECSQNYTTPSGVIKSPGFPEKYPNSLECTYIVFAPKMSEIILEFESFDLEPDSNPPGGMFCRYDRLEIWDGFPDVGPHIGRYCGQKTPGRIRSSSGILSMVFYTDSAIAKEGFSANYSVLQSSVSEDFKKITDYPCSGMLGMVSGLISDSQITSSNQGDRNWMPENIRLVTSRSGWALPPAPHSYINEWLQIDLGEEKIVRGIIIQGGKHRENKVFMRKFKIGYSNNGSDWKMIMDDSKRKAKSFEGNNNYDTPELRTFPALSTRFIRIYPERATHGGLGLRMELLGCEVEAPTAGPTTPNGNLVDECDDDQANCHSGTGDDFQLTGGTTVLATEKPTVIDSTIQSEFPTYGFNCEFGWGSHKTFCHWEHDNHVQLKWSVLTSKTGPIQDHTGDGNFIYSQADENQKGKVARLVSPVVYSQNSAHCMTFWYHMSGSHVGTLRVKLRYQKPEEYDQLVWMAIGHQGDHWKEGRVLLHKSLKLYQVIFEGEIGKGNLGGIAVDDISINNHISQEDCAKPADLDKKNPEIKIDETGSTPGYEGEGEGDKNISRKPGNVLKTLDPRSGSKENLYFQG
notes: a1a2b2c, deleted aa 281-430 and 857-923; The mature column prints 'About 22-429 and 431-856', against 1-280 and 431-856 in the column with signal peptide; Signal peptide not trimmed
For the molecule B6, the binding result is recorded as “no binding”.

B7: NRP1 trap X (receptor)
chain: FRNDKCGDTIKIESPGYLTSPGYPHSYHPSEKCEWLIQAPDPYQRIMINFNPHFDLEDRDCKYDYVEVFDGENENGHFRGKFCGKIAPPPVVSSGPFLFIKFVSDYETHGAGFSIRYELFKRGPECSQNYTTPSGVIKSPGFPEKYPNSLECTYIVFAPKMSEIILEFESFDLEPDSNPPGGMFCRYDRLEIWDGFPDVGPHIGRYCGQKTPGRIRSSSGILSMVFYTDSAIAKEGFSANYSVLQSSVSEDFKCMEALGMESGEIHSDQITASSQASTNWSAERSRLNYPENGWTPGEDSYREWIQVDLGLLRFVTAVGTQGAISKETKKKYYVKTYKIDVSSNGEDWITIKEGNKPVLFQGNTNPTDVVVAVFPKPLITRFVRIKPATWETGISMRFEVYGCKITDYPEVEAPTAGPTTPNGNLVDECDDDQANCHSGTGDDFQLTGGTTVLATEKPTVIDSTIQSEFPTYGFNCEFGWGSHKTFCHWEHDNHVQLKWSVLTSKTGPIQDHTGDGNFIYSQADENQKGKVARLVSPVVYSQNSAHCMTFWYHMSGSHVGTLRVKLRYQKPEEYDQLVWMAIGHQGDHWKEGRVLLHKSLKLYQVIFEGEIGKGNLGGIAVDDISINNHISQEDCAKPADLDKKNPEIKIDETGSTPGYEGEGEGDKNISRKPGNVLKTLDPRSGSKENLYFQG
notes: a1a2-b1-c with Y297A (held in the entry); Signal peptide not trimmed
With B7, the binding result is listed as “no binding”.
